Key:
[1] = substrate: N[C@@H](Cc1c[nH]cn1)C(=O)O; test: (§1) Activity of human recombinant CA3 at 10 uM stopped-flow CO2 hydration method
[2] = substrate: N[C@H](Cc1c[nH]cn1)C(=O)O; test: as §1
[3] = substrate: N[C@@H](Cc1c[nH]cn1)C(=O)O; test: (§2) Activity of human recombinant truncated CA4 at 10 uM stopped-flow CO2 hydration method
[4] = substrate: N[C@H](Cc1c[nH]cn1)C(=O)O; test: as §2

Protein	kcat [1]	kcat [2]	kcat [3]	kcat [4]
Carbonic anhydrase 3 (Homo sapiens), P07451 (protein) MAKEWGYASHNGPDHWHELFPNAKGENQSPVELHTKDIRHDPSLQPWSVSYDGGSAKTILNNGKTCRVVFDDTYDRSMLRGGPLPGPYRLRQFHLHWGSSDDHGSEHTVDGVKYAAELHLVHWNPKYNTFKEALKQRDGIAVIGIFLKIGHENGEFQIFLDALDKIKTKGKEAPFTKFDPSCLFPACRDYWTYQGSFTTPPCEECIVWLLLKEPMTVSSDQMAKLRSLLSSAENEPPVPLVSNWRPPQPINNRVVRASFK	1.8 ×10⁴ /s	16.9 ×10⁴ /s	–	–
Carbonic anhydrase 4 (Homo sapiens), P22748 (protein) MRMLLALLALSAARPSASAESHWCYEVQAESSNYPCLVPVKWGGNCQKDRQSPINIVTTKAKVDKKLGRFFFSGYDKKQTWTVQNNGHSVMMLLENKASISGGGLPAPYQAKQLHLHWSDLPYKGSEHSLDGEHFAMEMHIVHEKEKGTSRNVKEAQDPEDEIAVLAFLVEAGTQVNEGFQPLVEALSNIPKPEMSTTMAESSLLDLLPKEEKLRHYFRYLGSLTTPTCDEKVVWTVFREPIQLHREQILAFSQKLYYDKEQTVSMKDNVRPLQQLGQRTVIKSGAPGRPLPWALPALLGPMLACLLAGFLR	–	–	4.3 ×10⁶ /s	3.8 ×10⁶ /s

Reference: ChEMBL document CHEMBL1155874, “Carbonic anhydrase activators: Activation of the human cytosolic isozyme III and membrane-associated isoform IV with amino acids and amines” (Bioorg Med Chem Lett, 2008)
